# Measurements taken from US20190374506.
# Tested on: Flag-PTEN
substance,measurement,value
WW domain containing E3 ubiquitin protein ligase 1 (WWP1),"in vitro ubiquitination of Flag-PTEN (E1, E2, ubiquitin; western blot with anti-PTEN antibody), WWP1 alone",incubation of WWP1 alone only slightly triggered PTEN poly-ubiquitination
same,"in vitro ubiquitination of Flag-PTEN, WWP1 and NEDD4-1 both present","in the presence of both WWP1 and NEDD4-1, PTEN was robustly K27-linked poly-ubiquitinated"
